Reference: patent US20090142300A1

Target: T1, wild-type Toll-like receptor 3 (TLR3), homo sapiens (homo sapiens) (UniProt O15455)
T1 sequence: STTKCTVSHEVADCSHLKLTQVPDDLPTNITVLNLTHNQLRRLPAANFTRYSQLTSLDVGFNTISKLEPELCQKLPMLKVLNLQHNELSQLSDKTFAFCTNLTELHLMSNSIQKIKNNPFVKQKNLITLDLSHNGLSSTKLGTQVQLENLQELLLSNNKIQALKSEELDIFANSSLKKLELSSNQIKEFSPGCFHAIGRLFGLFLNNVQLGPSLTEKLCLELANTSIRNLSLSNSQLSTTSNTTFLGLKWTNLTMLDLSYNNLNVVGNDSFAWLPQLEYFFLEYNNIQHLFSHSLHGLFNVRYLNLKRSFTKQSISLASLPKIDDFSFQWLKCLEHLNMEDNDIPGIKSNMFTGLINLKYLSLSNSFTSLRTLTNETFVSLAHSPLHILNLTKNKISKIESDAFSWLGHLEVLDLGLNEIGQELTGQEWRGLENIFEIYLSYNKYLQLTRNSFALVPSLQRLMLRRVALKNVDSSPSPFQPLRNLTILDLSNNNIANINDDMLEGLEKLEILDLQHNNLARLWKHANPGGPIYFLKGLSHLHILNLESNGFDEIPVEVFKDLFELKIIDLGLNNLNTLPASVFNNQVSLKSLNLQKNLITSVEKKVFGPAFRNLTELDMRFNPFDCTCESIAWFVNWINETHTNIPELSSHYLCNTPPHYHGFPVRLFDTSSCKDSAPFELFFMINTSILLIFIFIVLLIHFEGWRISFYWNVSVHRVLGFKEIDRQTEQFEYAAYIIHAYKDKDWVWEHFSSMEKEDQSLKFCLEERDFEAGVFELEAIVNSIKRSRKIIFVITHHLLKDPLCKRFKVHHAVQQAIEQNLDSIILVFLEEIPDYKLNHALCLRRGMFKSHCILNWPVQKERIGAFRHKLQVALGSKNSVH
Experiment: cell-based or functional assay

| Substance | wild-type TLR3 activity with the mutant at six molar excess of WT (dominant negative assay) [%] | further results |
| --- | --- | --- |
| TLR3 mutant C696A (from UniProt O15455 24-904) (receptor) | 76 | – |
| K467EΔTIR, TLR3 mutant K467E lacking the TIR domain (from UniProt O15455 24-753) (receptor) | – | wild-type TLR3 activity with the mutant at six fold molar excess (dominant negative assay): 27% |
| TLR3 mutant H539E (from UniProt O15455 24-904) (receptor) | 16 | – |
| TLR3 mutant C37A (from UniProt O15455 24-904) (receptor) | 61 | – |
| ΔTIR, dominant negative version of TLR3 that lacks the TIR domain (from UniProt O15455 24-753) (receptor) | 14 | wild-type TLR3 activity (NF-kB luciferase reporter, poly(I:C) induced) with the mutant at 2-fold molar excess, relative to empty vector: 26%; wild-type TLR3 activity (NF-kB luciferase reporter, poly(I:C) induced) with the mutant at 6-fold molar excess, relative to empty vector: 12% |
| TLR3 mutant E442K (from UniProt O15455 24-904) (receptor) | – | wild-type TLR3 activity with the mutant at six molar excess to the WT (dominant negative assay): 51% |
| TLR3 mutant N466A (from UniProt O15455 24-904) (receptor) | 17 | – |
